Data taken from PMC5941077.

Target: FLAG-tagged 3D7 CLAG3 protein (3D7 CLAG3.1 with tandem miniSOG-FLAG tag, TFLC3 parasite) (Plasmodium falciparum (3D7 line)) (UniProt O77310)
Assay: co-IP; TFLC3 trophozoite-infected cell lysate in 50 mM Tris-HCl pH 7.4, 150 mM NaCl, 5 mM EDTA, 1% Triton X-100; anti-FLAG agarose beads, at least 2 h at 4°C; immunoblot probed with anti-HA; eluate compared with serial dilutions of the input

Sequence of UniProt O77310 (O77310 25-1417): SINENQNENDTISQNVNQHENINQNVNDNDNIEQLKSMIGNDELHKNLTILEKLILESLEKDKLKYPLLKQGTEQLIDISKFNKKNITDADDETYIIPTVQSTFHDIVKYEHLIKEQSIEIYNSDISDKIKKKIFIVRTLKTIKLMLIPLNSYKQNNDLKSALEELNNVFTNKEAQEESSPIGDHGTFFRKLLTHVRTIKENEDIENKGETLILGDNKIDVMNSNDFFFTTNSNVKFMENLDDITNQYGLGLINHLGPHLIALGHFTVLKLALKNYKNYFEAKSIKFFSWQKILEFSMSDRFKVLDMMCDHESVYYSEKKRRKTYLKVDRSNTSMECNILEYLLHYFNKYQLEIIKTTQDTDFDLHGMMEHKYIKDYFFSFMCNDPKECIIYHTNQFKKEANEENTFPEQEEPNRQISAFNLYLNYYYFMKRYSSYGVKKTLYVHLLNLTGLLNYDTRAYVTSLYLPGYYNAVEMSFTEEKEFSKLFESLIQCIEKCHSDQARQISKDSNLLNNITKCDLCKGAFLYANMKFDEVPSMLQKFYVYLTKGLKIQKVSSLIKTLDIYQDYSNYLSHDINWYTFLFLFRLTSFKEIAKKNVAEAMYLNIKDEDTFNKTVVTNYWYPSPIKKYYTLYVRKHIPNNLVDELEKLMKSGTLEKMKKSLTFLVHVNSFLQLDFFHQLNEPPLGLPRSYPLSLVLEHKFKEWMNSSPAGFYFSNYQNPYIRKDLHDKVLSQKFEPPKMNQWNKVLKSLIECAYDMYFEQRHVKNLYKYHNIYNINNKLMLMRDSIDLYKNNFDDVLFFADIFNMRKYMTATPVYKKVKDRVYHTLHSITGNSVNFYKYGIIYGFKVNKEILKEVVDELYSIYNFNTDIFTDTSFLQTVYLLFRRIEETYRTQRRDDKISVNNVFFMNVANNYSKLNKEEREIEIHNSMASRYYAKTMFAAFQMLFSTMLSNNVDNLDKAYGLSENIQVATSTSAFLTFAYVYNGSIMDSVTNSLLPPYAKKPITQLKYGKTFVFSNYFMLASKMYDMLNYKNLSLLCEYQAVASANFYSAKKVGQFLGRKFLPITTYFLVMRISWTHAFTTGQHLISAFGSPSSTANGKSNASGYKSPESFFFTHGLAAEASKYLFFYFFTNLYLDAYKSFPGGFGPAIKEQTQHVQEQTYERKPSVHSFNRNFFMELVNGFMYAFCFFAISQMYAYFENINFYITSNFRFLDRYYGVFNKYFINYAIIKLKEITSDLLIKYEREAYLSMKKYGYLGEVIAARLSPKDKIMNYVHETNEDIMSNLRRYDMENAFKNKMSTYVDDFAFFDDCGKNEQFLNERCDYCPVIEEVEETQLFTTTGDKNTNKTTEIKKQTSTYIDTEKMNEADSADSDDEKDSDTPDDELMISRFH

Substance: HA-tagged Dd2 CLAG3 protein (TFLC3 parasite) (natural protein)
- percent of the HA-tagged isoform coprecipitated on anti-FLAG beads: 1 to 10%
